Numbering of substitutions follows the chain as printed.

Common to all, as to assay: EMSA
What all share (conditions): derived from FIG. 2D
For orientation: A gel shift assay detects complexes by their altered migration in electrophoresis.

Data set [1] concerns the target T1, XylR R121C R121C (Escherichia coli) (UniProt P0ACI3).
T1 sequence: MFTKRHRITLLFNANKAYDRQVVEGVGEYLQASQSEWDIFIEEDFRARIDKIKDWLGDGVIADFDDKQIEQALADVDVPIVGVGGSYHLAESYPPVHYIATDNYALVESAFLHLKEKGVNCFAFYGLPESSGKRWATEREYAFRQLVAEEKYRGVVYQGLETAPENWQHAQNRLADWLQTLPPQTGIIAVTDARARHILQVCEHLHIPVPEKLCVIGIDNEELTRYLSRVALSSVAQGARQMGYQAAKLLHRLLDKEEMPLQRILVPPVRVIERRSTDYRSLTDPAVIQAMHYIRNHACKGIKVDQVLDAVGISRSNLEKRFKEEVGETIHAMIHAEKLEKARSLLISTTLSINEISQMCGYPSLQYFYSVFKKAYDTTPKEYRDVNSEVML

In data set [2] the target is T2, XylR P363S P363S (Escherichia coli) (UniProt P0ACI3).
T2 sequence: T1 sequence with C121R, P363S

Data set [3] concerns the target T3, XylR wild-type (Escherichia coli) (UniProt P0ACI3).
T3 sequence: T1 sequence with C121R

In general, Kd refers to the equilibrium constant for the complex coming apart. A low value points to tighter binding. Consider XylR binding site IA, for which the Kd in data set [1] was 2.7 nM; in data set [2] it was 12.4 nM; in data set [3] it was 38.5 nM.
On to XylR binding site IF, for which the results for the Kd in data set [1], in data set [2] (value as printed) and in data set [3] were 4 nM, 27 nM and 19.6 nM, respectively.

These data come from US20160362456.
